According to patent US20240301052A1 (LANOVA MEDICINES DEVELOPMENT, published 2024):

T1: human SLC34A2 (human, UniProt O95436 1-690)
T1 construct: whole, on cells; also called human solute carrier 34 A2; NaPi2b
T1 sequence (looked up): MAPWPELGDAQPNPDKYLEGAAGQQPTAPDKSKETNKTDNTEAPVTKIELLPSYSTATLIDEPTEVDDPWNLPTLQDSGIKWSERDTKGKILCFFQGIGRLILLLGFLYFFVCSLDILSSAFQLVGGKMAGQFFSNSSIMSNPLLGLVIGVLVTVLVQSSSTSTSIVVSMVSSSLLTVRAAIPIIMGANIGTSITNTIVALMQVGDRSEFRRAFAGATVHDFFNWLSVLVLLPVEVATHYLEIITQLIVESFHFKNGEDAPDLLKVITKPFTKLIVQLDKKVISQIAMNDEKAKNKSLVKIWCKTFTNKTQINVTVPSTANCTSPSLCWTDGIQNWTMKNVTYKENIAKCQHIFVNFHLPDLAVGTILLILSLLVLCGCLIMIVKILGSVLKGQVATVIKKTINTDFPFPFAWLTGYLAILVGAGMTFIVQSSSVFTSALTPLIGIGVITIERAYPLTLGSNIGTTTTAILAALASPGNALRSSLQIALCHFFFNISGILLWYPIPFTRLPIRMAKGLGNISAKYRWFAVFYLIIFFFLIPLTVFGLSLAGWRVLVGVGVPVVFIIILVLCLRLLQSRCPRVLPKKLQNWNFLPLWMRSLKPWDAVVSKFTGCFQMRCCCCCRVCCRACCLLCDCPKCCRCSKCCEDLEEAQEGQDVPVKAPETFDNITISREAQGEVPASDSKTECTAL

T2: Cynomolgus SLC34A2 (Cynomolgus, UniProt A0A2K5UHY1 1-690)
T2 construct: whole, on cells; also called Cyno SLC34A2
T2 sequence: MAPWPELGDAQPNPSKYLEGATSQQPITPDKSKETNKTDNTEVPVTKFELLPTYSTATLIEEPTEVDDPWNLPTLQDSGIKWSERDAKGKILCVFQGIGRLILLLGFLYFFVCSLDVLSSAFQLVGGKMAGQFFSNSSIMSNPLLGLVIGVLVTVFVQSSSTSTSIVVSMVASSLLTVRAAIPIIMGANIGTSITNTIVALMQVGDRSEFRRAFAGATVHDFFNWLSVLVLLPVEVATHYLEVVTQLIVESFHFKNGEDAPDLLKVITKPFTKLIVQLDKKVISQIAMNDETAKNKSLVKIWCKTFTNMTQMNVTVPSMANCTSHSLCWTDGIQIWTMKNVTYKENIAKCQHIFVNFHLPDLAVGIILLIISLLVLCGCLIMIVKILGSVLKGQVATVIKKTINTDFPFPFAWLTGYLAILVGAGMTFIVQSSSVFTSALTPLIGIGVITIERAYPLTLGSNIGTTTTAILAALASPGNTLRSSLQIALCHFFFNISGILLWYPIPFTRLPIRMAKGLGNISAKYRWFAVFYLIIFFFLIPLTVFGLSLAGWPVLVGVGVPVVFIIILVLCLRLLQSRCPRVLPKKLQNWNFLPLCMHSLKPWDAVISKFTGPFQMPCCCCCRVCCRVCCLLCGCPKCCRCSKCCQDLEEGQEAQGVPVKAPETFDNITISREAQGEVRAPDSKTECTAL

T3: Rhesus SLC34A2 (Rhesus, UniProt F7HDA3 1-690)
T3 construct: whole, on cells
T3 sequence: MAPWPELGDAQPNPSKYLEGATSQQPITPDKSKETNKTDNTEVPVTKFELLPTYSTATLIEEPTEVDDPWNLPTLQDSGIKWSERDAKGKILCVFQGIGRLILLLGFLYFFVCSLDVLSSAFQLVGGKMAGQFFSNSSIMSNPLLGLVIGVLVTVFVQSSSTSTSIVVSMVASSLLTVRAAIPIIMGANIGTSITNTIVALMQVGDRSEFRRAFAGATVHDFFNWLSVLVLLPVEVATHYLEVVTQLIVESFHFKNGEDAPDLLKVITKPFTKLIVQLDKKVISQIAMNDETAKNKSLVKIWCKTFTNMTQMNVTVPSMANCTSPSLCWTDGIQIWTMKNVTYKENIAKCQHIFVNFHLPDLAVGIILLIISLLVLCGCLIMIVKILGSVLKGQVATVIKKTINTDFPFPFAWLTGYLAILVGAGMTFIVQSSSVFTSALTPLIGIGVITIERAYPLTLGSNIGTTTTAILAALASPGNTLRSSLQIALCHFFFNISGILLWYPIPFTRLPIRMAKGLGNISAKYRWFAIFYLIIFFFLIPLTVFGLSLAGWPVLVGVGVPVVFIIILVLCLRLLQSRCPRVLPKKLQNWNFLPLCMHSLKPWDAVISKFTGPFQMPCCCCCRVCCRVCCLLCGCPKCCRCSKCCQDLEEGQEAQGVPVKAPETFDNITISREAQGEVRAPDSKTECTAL


Key:
human SLC34A2 [1] = target: T1, human SLC34A2; assay: FACS, OVCAR3 cells
Cynomolgus SLC34A2 = target: T2, Cynomolgus SLC34A2; assay: FACS, cells expressing Cynomolgus SLC34A2
human SLC34A2 [2] = target: T1, human SLC34A2; assay: FACS, OVCAR3 cells; remark: listed apart in the source
Procedure: In this example, cell based binding of chimeric antibodies (hIgG1) prepared from the murine antibodies on human SLC34A2 expressing cells were assessed using flow cytometry.
(§1) Briefly, OVCAR3 cells or HEK293 cells expressing human SLC34A2 were incubated with chimeric antibodies (from 200 nM, 4 folds dilution, 8 points). After incubation at 4° C. for 60 minutes, the cells were washed with FACS buffer twice, then stained with fluorescent conjugated secondary antibody at 4° C. for 30 minutes. After that the cells were washed twice and analyzed by flow cytometry.

Rhesus SLC34A2 = target: T3, Rhesus SLC34A2; assay: FACS, HEK293/Rhesus SLC34A2 cells
Procedure: as §1, with “the Rhesus SLC34A2 expressing HEK293 engineering” for “OVCAR3”, “(HEK293/Rhesus_SLC34A2)” for “or HEK293 cells expressing human SLC34A2”, “Abs” for “antibodies”

human SLC34A2 [3] = target: T1, human SLC34A2; assay: cell-based or functional assay
human SLC34A2 [4] = target: T1, human SLC34A2; assay: cell-based or functional assay; remark: listed apart in the source
human SLC34A2 [5] = target: T1, human SLC34A2; assay: FACS, HEK293/human SLC34A2 cells
Procedure: as §1

human SLC34A2 [6] = target: T1, human SLC34A2; assay: FACS, RMG-1 cells
Procedure: Based on the foregoing cell-based binding results, some of the chimeric antibodies were selected for further cell based binding on human SLC34A2 expressing cells using flow cytometry. RMG-1 cells were incubated with the selected chimeric antibodies (from 200 nM, 4 folds dilution, 8 points). After incubation at 4° C. for 60 minutes, the cells were washed with FACS buffer twice, then stained with fluorescent conjugated secondary antibody at 4° C. for 30 minutes. Afterwards the cells were washed twice and analyzed by flow cytometry.

Binder	EC50 (human SLC34A2 [1])	Top (MFI) (human SLC34A2 [1])	EC50 (Cynomolgus SLC34A2)	Top (MFI) (Cynomolgus SLC34A2)	EC50 (human SLC34A2 [2])	Top (MFI) (human SLC34A2 [2])	EC50 (Rhesus SLC34A2)	Top (MFI) (Rhesus SLC34A2)	cytotoxicity EC50 (human SLC34A2 [3])	cytotoxicity Inhibition % (human SLC34A2 [3])	ADCC reporter EC50 (human SLC34A2 [4])	ADCC reporter Top (MFI) (human SLC34A2 [4])	EC50 (human SLC34A2 [5])	Top (MFI) (human SLC34A2 [5])	EC50 (human SLC34A2 [6])	Top (MFI) (human SLC34A2 [6])
91C9F1.p1.z3 hIgG1 (antibody, V domains shown, humanized hIgG1) VH: QVQLVQSGAEVKKPGSSVKVSCKASGFFFTEYIIHWVRQAPGQGLEWMGGIIPNNDVTNYKQNFRGRVTITADESTSTAYMELSSLRSEDTAVYYCARWRNAYYSAMDSWGQGTTVTVSS VL: DIQVTQSPSSLSTSVGDRVTITCTASQDVGTAVAWYQQKPGKSPKLLIYWASTRHTGVPERFTGSGSGTDFTLTISSVQPEDVATYFCQQYRTSPLTFGVGTKVEIK	4.04 nM	35500 MFI	–	–	–	–	–	–	–	–	–	–	–	–	–	–
91C9F1.p1.z2 hIgG1 (antibody, V domains shown, humanized hIgG1) VH: QVQLVQSGAEVKKPGSSVKVSCKASGFFFTEYIIHWVRQAPGQGLEWMGGIIPNNDVTNYKQNFRGRVTITADESTSTAYMELSSLRSEDTAVYYCARWRNAYYSAMDSWGQGTTVTVSS VL: DIQMTQSPSSLSTSVGDRVTITCTASQDVGTAVAWYQQKPGKSPKLLIYWASTRHTGVPERFSGSGSGTDFTLTISSLQPEDVATYFCQQYRTSPLTFGGGTKVEIK	3.32 nM	34500 MFI	–	–	–	–	–	–	–	–	–	–	–	–	–	–
xi94E9B12 hIgG1 (antibody, V domains shown, chimeric, hIgG1) VH: QVQLQQPGAELVKPGASVKMSCKASGYTFTSYNMQWVKQTYGQGLEWIGAISPGSGETSYNQNFKVKATLTADKISSTAYMQLSSLTSEDSAVYYCARAARAEGWFAYWGQGTLVTVSA VL: DIVMTQSHKFMSTSVGDRVSITCKASQDVGHAVVWYQQKPGQFPKLLIYWASTRHAGVPDRFTGSGSGTDFTLTISNVQSEDLADYFCQQFRSIPLTFGSGTKLEIK	–	–	2.51 nM	3580 MFI	11 nM	46200 MFI	2.38 nM	18700 MFI	0.85 nM	83.6%	3.3 nM	382000 MFI	2.48 nM	106000 MFI	9.05 nM	10000 MFI
xi78D1B10 hIgG1 (antibody, V domains shown, chimeric, hIgG1) VH: QVQLQQPGADLVKPGASVKLSCKASGFTFTSYIIHWVKQTPGQGLEWIGAIYPGNGDTSYIQKFKGRATLTADKSSTTAYMQLGGLTSEDSAVYYCARGTYGSSAWFVYWGQGTLVTVSA VL: DIVLTQSPATLSVTPGDSVSLSCRASQSISNNLYWYQQKSHESPRLLIKYASQSISGIPSRFRGSGSGTDFTLSINSVETEDFGMYFCQQSNSWPLTFGAGTKLELK	–	–	1.5 nM	4400 MFI	2.52 nM	27500 MFI	1.58 nM	16000 MFI	0.5 nM	94%	2.6 nM	212000 MFI	1.26 nM	47700 MFI	2.1 nM	9860 MFI
xi87H12B7 hIgG1 (antibody, V domains shown, chimeric, hIgG1) VH: QVQLQQPGAEVVRPGASVKMSCKASGYTFTSYIVHWVKQPPGQGLEWIGAIYPGNGDTSYIQKFKGRATLTADKSSSTVYMQLSSLTSEDSAVYYCARGHYYGSAAWFGFWGQGTLVTVSA VL: DILLTQSPAILSVSPGERVSFSCRASQNIGTSIHWYQQRTNDSPRLLMRYASESVSGIPSRFSGSGSGTDFTLSINSVESEDIADYYCQQSNTWPLTFGAGTKLELK	–	–	7.66 nM	4710 MFI	5.43 nM	27800 MFI	2.85 nM	18300 MFI	0.35 nM	82.6%	5.1 nM	195000 MFI	1.62 nM	44900 MFI	9.11 nM	9660 MFI
